We go through six molecules from patent US20220372150A1 (ZHEJIANG DOER BIOLOGICS, published 2022).

Positions count from the first letter of the chain named.

B1: anti-PDL1 single-domain antibody 1D1, histidine-tagged (VHH)
VHH: QLQLVESGGGLVQAGGSLRLSCAASGGTFITYAMGWFRQAPGKDREFVAGISWSGSSTYYTDSVKGRFTISRDNAKNTVYLQMNSLKPGDTAVYYCAAKISGATREHLMTSYDYWGQGTQVTVSS
notes: not shown: C-terminal histidine tag
B2: anti-PDL1 single-domain antibody 5A8, histidine-tagged (VHH)
VHH: B1 VHH with A14P, K76Q, L86R, M109R, W115G
notes: as for B1
B3: anti-PDL1 single-domain antibody 1D7, histidine-tagged (VHH)
VHH: QVQLVESGGGLVQPGGSLRLSCAASGRAFLTYAMGWFRQAPGKEREFVAAISWSGSSTYYADSVKGRFTISRDNAKNMVYLQMNSLKPEDTAVYYCAAKVSGATRDHLMTTYDYWGQGTQVTVSS
notes: as for B1
B4: anti-PDL1 single-domain antibody 1A7, histidine-tagged (VHH)
VHH: QLQLVESGGDLVQPGGSLRLSCAASGSIFSANLIDWYRQPPGKQRELVAVISSRGITSYADSVKGRFTISRDNAKNTVYLQMNSLKPEDTAVYYCHLFHTDGLGYWGQGTQVTVSS
notes: as for B1
B5: anti-PDL1 single-domain antibody 6F1, histidine-tagged (VHH)
VHH: QLQLVESGGGLVQPGGSLRLSCAASGRTFSTHSMHWFRQAPEKERVFVAAINWNGDSTYYADSVKGRFTISRDNSKNTVDLQMNNLKPEDTAVYVCAARPGAPSTIVAMLDYWGQGTQVTVSS
notes: as for B1
B6: anti-PDL1 single-domain antibody 1G10, histidine-tagged (VHH)
VHH: QVQLVESGGGLVQAGGSLRLSCAASGRPFITYAMGWFRQAPGKEREFVAAINWSGSITAYADSVKGRFTISRDNAKNAAYLQMNSLKPDDTAVYYCASKRTAVAPRALNDYDFWGQGTQVTVSS
notes: as for B1

The term IC50 denotes the midpoint of a concentration-inhibition curve. Read a high IC50 as a need for much substance.

The target in one experiment is T1, HSA (purchased from Sigma) (human, UniProt P02768 25-609).
T1 construct: Control coating for the fusion partner of PDL1-HSA; also called human serum albumin
T1 sequence (P02768 25-609 limits assumed): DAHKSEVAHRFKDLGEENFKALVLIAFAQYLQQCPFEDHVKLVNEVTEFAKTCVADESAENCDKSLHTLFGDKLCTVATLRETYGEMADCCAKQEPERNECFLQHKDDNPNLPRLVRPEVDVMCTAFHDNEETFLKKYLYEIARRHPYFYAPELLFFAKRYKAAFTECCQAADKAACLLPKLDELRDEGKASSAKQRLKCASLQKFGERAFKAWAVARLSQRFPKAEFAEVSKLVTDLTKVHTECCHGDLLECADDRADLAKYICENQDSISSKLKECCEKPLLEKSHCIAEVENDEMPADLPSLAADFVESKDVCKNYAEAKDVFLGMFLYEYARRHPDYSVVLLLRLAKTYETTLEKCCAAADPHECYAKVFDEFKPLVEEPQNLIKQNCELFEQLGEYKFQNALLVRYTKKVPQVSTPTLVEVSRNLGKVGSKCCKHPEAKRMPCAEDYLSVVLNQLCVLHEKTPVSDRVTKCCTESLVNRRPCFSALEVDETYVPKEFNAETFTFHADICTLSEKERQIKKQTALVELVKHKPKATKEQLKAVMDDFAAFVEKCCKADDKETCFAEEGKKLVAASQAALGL
Kind of experiment: ELISA, VHH at 1 µg/mL on coated HSA, anti-his detection. Here is the method:
(§1) Human PDL1-HSA or HSA (purchased from Sigma) was coated onto a plate in an amount of 200 ng/well at 4° C., and blocked with 5% skimmed milk powder for 1 hr at room temperature. The purified anti-PDL1single-domain antibody with a histidine-tag was diluted to 1 μg/mL, added to the plate in an amount of 100 μL/well, and incubated at 37° C. for 1 hr. After washing three times with PBST, 100 μl/well of 1:5000 diluted mouse anti-his tag antibody (R&D Systems Inc.) was added, and the plate was incubated at room temperature for 1 hr. After washing with PBST, 100 μwell of 1:10000 diluted HRP-Goat anti mouse IgG antibody (Thermo Scientific) was added, and the plate was incubated at room temperature for 1 hr. After washing with PBST, a TMB developing solution (Beijing ComWin Biotech Co., Ltd) was added for color development, and the OD value was read at 450 nm.
In general terms: In an ELISA, binding on a coated surface is turned into a signal by an enzyme label.
For B1, the OD450 nm came out at 0.074 OD450 nm.

Turning to B2, the OD450 nm came out at 0.064 OD450 nm.

Take B3: the OD450 nm came out at 0.076 OD450 nm.

With B4, the OD450 nm is 0.082 OD450 nm.

Regarding B5, the OD450 nm was determined as 0.081 OD450 nm.

Molecule B6 displayed an OD450 nm of 0.073 OD450 nm.

The target in the next experiment is T2, PDL1-HSA fusion protein composed of PDL1 extracellular domain and human serum albumin (human).
T2 construct: The entry is the whole fusion: PD-L1 extracellular domain, linker, human serum albumin; also called Human PDL1-HSA; hPDL1-HSA
T2 sequence (chain, as listed by the source limits assumed): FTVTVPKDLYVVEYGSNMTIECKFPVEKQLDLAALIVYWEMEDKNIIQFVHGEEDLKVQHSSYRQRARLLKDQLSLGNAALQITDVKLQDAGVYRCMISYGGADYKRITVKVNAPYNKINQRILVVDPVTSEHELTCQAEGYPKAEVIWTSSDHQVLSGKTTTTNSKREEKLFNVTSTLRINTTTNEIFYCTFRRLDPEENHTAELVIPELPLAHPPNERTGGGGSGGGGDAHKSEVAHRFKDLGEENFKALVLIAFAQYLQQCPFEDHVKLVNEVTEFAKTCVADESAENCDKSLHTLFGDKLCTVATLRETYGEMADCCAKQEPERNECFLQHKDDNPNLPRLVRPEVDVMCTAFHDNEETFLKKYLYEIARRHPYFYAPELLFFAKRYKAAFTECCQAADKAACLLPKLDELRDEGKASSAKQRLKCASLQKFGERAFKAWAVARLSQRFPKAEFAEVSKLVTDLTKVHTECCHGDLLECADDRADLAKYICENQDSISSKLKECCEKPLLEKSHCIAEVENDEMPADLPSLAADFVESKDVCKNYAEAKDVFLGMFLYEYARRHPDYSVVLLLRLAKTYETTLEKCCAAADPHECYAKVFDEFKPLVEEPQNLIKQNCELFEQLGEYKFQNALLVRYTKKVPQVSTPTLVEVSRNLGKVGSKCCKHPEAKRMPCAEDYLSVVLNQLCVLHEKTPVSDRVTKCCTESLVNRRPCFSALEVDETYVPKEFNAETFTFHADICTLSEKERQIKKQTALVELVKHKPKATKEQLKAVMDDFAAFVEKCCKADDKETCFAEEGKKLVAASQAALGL
The experiment in a line: competitive ELISA on coated PDL1-HSA; competitor PD1-Fc (4.8 µg/mL, mixed in equal volume). Here is the method:
PDL1-HSA was coated onto a plate overnight in an amount of 200 ng/well at 4° C., and blocked with 5% skimmed milk powder for 1 hr at room temperature. […] 100 μl was added per well and incubated at 37° C. for 1 hr. After washing three times with PBST, 100 μl of 1:20000 diluted HRP-Goat anti-Human IgG Fc(Novex) was added to each well, and incubated at room temperature for 1 hr. After washing three times with PBS, TMB substrate was added, and the plated was incubated at 37° C. After incubation for 5 min to develop color, 1 M sulfuric acid was added to stop the reaction. The OD value was read at 450 nm, and the half maximal inhibitory concentration (IC50 value) was calculated.
As for B1, the 50% inhibitory concentration (IC50) turned out to be 0.0452 µg/mL.

In turn, B2 gave an IC50 of 0.0436 µg/mL.

As for B3, the IC50 was 0.0551 µg/mL. The IC50 values of the last two molecules are within 1.5-fold of each other.

Molecule B4 yielded a half-maximal inhibitory concentration (IC50) of 0.0505 µg/mL.

With B5, the IC50 came to 0.0527 µg/mL. The IC50 values of the last two molecules are within 1.5-fold of each other.

B6 yielded an IC50 of 0.0628 µg/mL.

For another experiment, the target named is T3, Mouse mPDL1-HSA fusion protein (mouse).
T3 construct: The entry is the whole fusion of mouse PD-L1 with HSA; also called mouse PDL1
T3 sequence (chain, as listed by the source limits assumed): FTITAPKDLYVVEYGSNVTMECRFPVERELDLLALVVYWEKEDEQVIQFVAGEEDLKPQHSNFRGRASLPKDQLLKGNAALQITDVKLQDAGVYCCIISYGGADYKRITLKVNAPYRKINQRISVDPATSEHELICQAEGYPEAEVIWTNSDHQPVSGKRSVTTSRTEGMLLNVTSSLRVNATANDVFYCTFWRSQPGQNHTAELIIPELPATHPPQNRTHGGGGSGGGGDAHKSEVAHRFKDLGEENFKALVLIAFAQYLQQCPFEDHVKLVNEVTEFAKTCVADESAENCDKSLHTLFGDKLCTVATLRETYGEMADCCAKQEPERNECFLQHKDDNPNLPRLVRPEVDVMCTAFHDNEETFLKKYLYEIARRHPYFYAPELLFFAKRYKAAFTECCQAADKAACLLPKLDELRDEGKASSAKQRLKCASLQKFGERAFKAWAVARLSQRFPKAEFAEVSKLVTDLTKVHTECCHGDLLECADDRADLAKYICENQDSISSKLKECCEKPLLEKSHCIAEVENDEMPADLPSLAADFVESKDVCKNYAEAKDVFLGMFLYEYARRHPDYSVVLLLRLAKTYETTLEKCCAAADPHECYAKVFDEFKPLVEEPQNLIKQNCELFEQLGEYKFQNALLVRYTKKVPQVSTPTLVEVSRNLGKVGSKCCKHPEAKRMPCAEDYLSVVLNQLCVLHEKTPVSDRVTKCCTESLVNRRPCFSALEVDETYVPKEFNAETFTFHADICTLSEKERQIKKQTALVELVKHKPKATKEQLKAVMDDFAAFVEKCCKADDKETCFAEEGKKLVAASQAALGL
Kind of experiment: ELISA on coated mPDL1-HSA, anti-his detection. Here is the method: Mouse mPDL1-HSA fusion protein (SEQ ID NO: 52) was coated onto a plate overnight in an amount of 200 ng/ well at 4° C., and blocked with 5% skimmed milk powder for 1 hr at room temperature. The purified histidine-tagged anti-PDL1single-domain antibody was diluted to 1 μg/mL, then added to the plate in an amount of 100 μL/well, and incubated at 37° C. for 1 hr. After washing three times with PBST, 100 μl/well of 1:5000 diluted mouse anti his tag antibody (R&D Systems Inc) was added, and the plate was incubated at room temperature for 1 hr. After washing with PBST, 100 μl/well of 1:10000 diluted HRP-Goat anti mouse IgG antibody (Thermo Scientific) was added, and the plate was incubated at room temperature for 1 hr. After washing with PBST, TMB was added for color development, and the OD value was detected at 450 nm.
For B1, the binding result is “no binding (tested: 1 µg/mL)”.

Consider B2, for which the binding result was “no binding (tested: 1 µg/mL)”.

B3: the binding result is listed as “no binding (tested: 1 µg/mL)”.

As for B4, the binding result is recorded as “no binding (tested: 1 µg/mL)”.

B5: the binding result is on record as “no binding (tested: 1 µg/mL)”.

Turning to B6, the binding result is reported as “no binding (tested: 1 µg/mL)”.

The target of a further experiment is T2, PDL1-HSA fusion protein composed of …. The experiment in a line: ELISA, VHH at 1 µg/mL on coated PDL1-HSA, anti-his detection. Here is the method:
as §1
Molecule B1 yielded an OD450 nm of 2.01 OD450 nm.

Regarding B2, the OD450 nm was found to be 2.02 OD450 nm.

B3 displayed an OD450 nm of 2.15 OD450 nm.

Consider B4, for which the OD450 nm is 2.05 OD450 nm.

In turn, B5 showed an OD450 nm of 2.05 OD450 nm.

Regarding B6, the OD450 nm was determined as 2.08 OD450 nm.
